Several values for one entry are separate records, joined by “and”; a condition that tells them apart may be missing. Equal values may be shown once.
T1: equine interleukin 5 with 8 × His-tag (equine (horse), UniProt O02699 20-134)
T1 chain: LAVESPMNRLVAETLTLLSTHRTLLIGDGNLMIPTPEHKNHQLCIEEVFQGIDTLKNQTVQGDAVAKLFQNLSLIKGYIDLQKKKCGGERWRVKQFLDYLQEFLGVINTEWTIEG


How the values were obtained:
[1] = molecular target: T2, equine interleukin 5 with 8 × His-tag (Equus caballus, UniProt O02699)
BSA [2] = molecular target: T3, BSA (Bos taurus, UniProt P02769); test: ELISA; unspecificity ELISA: antigens immobilised at 10 ug/mL in PBS, blocked with 2% MPBST; 100 nM eqIgG6 antibody, 1 h at RT; detected with anti horse IgG (Fc)-HRP; settings: both partners purified
T3 construct: BSA (serum albumin), negative control coated on the plate

[3] = molecular target: T2, equine interleukin 5 with 8 × His-tag; test: ELISA; titration ELISA: 100 ng eqIL-5/well (or 1% BSA as negative control) immobilised, blocked with 2% MPBST; eqIgG6 antibody titrated from 316 nM, 1 h at RT; detected with anti horse IgG (Fc)-HRP; EC50 by Logistic5 fit; triplicates; settings: both partners purified
[4] = molecular target: T2, equine interleukin 5 with 8 × His-tag; test: flow cytometry on cells; competitive cellular inhibition assay: no pre-incubation; 1000 nM-0.1 nM antibody first put on 5 x 10^5 receptor expressing cells, then 5 nM eqIL-5 (related to dimer) added for 45 min on ice; detection as before; settings: both partners purified
[5] = molecular target: T2, equine interleukin 5 with 8 × His-tag; test: flow cytometry on cells; cellular in vitro inhibition assay: antibody (screening 1000 nM; titration 1000 nM-0.32 nM) pre-incubated with 5 nM eqIL-5 (related to dimer), then added to 5 x 10^5 eqIL-5 receptor expressing Expi293F cells for 45 min on ice, FACS buffer (2% FCS, 5 mM EDTA in PBS); bound eqIL-5 detected by Penta-His antibody and anti mouse Fc-APC; IC50 by Logistic5 fit; single measurements; settings: both partners purified
BSA [6] = molecular target: T3, BSA; test: ELISA; titration ELISA: 100 ng eqIL-5/well (or 1% BSA as negative control) immobilised, blocked with 2% MPBST; eqIgG6 antibody titrated from 316 nM, 1 h at RT; detected with anti horse IgG (Fc)-HRP; EC50 by Logistic5 fit; triplicates; settings: both partners purified
[7] = molecular target: T1, equine interleukin 5 with 8 × His-tag; test: ELISA

T3 sequence (P02769 25-607): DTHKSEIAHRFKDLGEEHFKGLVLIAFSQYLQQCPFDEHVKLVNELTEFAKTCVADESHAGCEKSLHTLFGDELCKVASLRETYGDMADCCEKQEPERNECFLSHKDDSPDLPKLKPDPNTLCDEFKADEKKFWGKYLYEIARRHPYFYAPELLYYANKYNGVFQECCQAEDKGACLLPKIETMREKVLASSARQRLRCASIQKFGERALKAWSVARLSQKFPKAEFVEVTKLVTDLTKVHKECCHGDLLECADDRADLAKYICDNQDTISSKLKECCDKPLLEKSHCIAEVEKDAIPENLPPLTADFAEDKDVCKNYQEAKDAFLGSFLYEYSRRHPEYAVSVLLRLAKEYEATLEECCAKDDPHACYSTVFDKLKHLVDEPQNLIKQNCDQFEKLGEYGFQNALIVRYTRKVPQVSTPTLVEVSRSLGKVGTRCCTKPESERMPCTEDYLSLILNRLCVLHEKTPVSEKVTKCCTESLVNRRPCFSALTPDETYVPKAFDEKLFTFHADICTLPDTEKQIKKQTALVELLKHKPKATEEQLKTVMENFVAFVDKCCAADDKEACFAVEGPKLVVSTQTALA

binding result [1]	EC50 [3] [nM]	IC50 [5]	binding result (BSA [6])	EC50 [7] [nM]	Binder	other results
binds	–	–	–	–	NOL226-2-D1 (antibody, V domains shown) VH: EVQLVETGGGVVRPGRSLRLSCAASGFTFSSYGMHWVRQAPGKGLEWVAVISYDGSNKYYADSVKGRFTISRDNSKNTLYLQMNSLRAEDTAVYYCVKGFKIQLWFAAFDIWGQGTMVTVSS VL: QSVLTQPPSVSVAPGQTARITCGGNNIGSKSVHWYQQKPGQAPVLVVYDDSDRPSGIPERFSGSNSGNTATLTIGRVESGDEADYYCQVWDSSSDPVVFGGGTKLTVL	–
binds	–	–	–	–	NOL226-2-G9 (antibody, V domains shown) VH: EVQLEETGGGVVQPGRSLRLSCAASGFTFGSYGMHWVRQAPGKGLEWVAVISYDGSNKYYADSVKGRFTISRDNSKNTLYLQMNSLRAEDTAVYYCAKGFKIQLWFAAFDIWGQGTMVTVSS VL: QSVLTQPPSISVAPGQTARITCGGNNIGSKSVHWYHQKPGQAPVLVVYDDSDRPSGIPERFSGSNSGNTATLTISRVEAGDEADYYCQVWDSSSDPVVFGGGTKLTVL	–
binds	–	–	–	–	NOL229-C3 (antibody, V domains shown) VH: EVQLVETGGGVVQPGRSLRLSCAASGFTFRSYGMHWVRQAPGKGLEWVAVISNDGSNKYYADSVKGRFTISRDNSKNTLYLQMNSLRAEDTAVYYCAKGFKIQLWFAAFDIWGQGAMVTVSS VL: QSVLTQPPSVSVAPGQTARITCGGNNIGSKSVHWYQQKPGQAPVLVVYDDSDRPSGIPERFSGSNTGNTATLTISRVEAGDEADYYCQVWDSSSDPVVFGGGTKLTVL	–
–	8.8	4 nM	–	–	NOL226-2-D10 (eqIgG6 format) (antibody, V domains shown, as the VH of m4 (NOL162-1-F5) with A97V and F100L, both in the CDR3 of the VH; as the VL of m4 (NOL162-1-F5); also called final antibody; final candidate; source: Expi293F suspension cells, purified (HiTrap Fibro PrismA or Protein G HP)) VH: EVQLVETGGGVVQPGRSLRLSCAASGFTFSSYGMHWVRQAPGKGLEWVAVISYDGSNKYYADSVKGRFTISRDNSKNTLYLQMNSLRAEDTAVYYCVKGLKIQLWFAAFDIWGQGTMVTVSS VL: QSVLTQPPSVSVAPGQTARITCGGNNIGSKSVHWYQQKPGQAPVLVVYDDSDRPSGIPERFSGSNSGNTATLTISRVEAGDEADYYCQVWDSSSDPVVFGGGTKLTVL	binding result (BSA [2]): no binding (tested: 100 nM); IC50 [4]: 9 nM
–	9	7 nM and 12 nM	–	–	NOL162-1-F5 (eqIgG6 format) (antibody, V domains shown, human VH of NOL162-1-F5 (selected from HAL9/10); human VL of NOL162-1-F5; Chimeric IgG: human VH and VL, all constant domains equine (IgG6); Selected by panning in MTP; also called parental antibody; parAB; source: Expi293F suspension cells, purified (HiTrap Fibro PrismA or Protein G HP)) VH: EVQLVETGGGVVQPGRSLRLSCAASGFTFSSYGMHWVRQAPGKGLEWVAVISYDGSNKYYADSVKGRFTISRDNSKNTLYLQMNSLRAEDTAVYYCAKGFKIQLWFAAFDIWGQGTMVTVSS VL: QSVLTQPPSVSVAPGQTARITCGGNNIGSKSVHWYQQKPGQAPVLVVYDDSDRPSGIPERFSGSNSGNTATLTISRVEAGDEADYYCQVWDSSSDPVVFGGGTKLTVL	binding result (BSA [2]): no binding (tested: 100 nM); IC50 [4]: 15 nM
binds	–	–	–	–	NOL225-2-F10 (antibody, V domains shown) VH: QVQLQQSGGGVVQPGRSLRLSCAASGFTFSSYGMHWVRQAPGKGLEWVAVIWYDGSNKYYADSVKGRFTISRDNSKNTLYLQINSLRAEDTAVYYCARGLYGRSYFDYWGQGTLVTVSS VL: SYELTQPPSVSVAPGQTAKIVCEGDNIGSKSVHWYQQRPGQAPVLVVYDDTDRPSGIPDRFSGSNSGNTATLTISRVEVGDEADYYCQVWDSGDGHPRVFGGGTKLTVL	–
–	1	6 nM and 12 nM	no binding (tested: 316 nM)	–	NOL48-1-D5 (eqIgG6 format) (antibody, V domains shown, human VH of NOL48-1-D5 (selected from HAL9/10); human VL of NOL48-1-D5; Chimeric IgG: human VH and VL, all constant domains equine (IgG6); Selected by panning in solution; also called parental antibody; parAB; source: Expi293F suspension cells, purified (HiTrap Fibro PrismA or Protein G HP)) VH: QVQLQQSGGGVVQPGRSLRLSCAASGFTFSSYGMHWVRQAPGKGLEWVAVIWYDGSNKYYADSVKGRFTISRDNSKNTLYLQMNSLRAEDTAVYYCARGLYGRSYFDYWGQGTLVTVSS VL: SYELTQPPSVSVAPGQTAKIACEGDNIGSKSVHWYQQRPGQAPVLVVYDDTDRPSGIPDRFSGSNSGNTATLTISRVEVGDEADYYCQVWDSGDGHPRVFGGGTKLTVL	–
–	–	4 nM	no binding (tested: 316 nM)	0.5	NOL231-1-A3 (eqIgG6 format) (antibody, V domains shown, as the VH of m3 (NOL48-1-D5); as the VL of m3 (NOL48-1-D5) with H96N in the CDR3 of the VL; source: Expi293F suspension cells, purified (HiTrap Fibro PrismA or Protein G HP)) VH: QVQLQQSGGGVVQPGRSLRLSCAASGFTFSSYGMHWVRQAPGKGLEWVAVIWYDGSNKYYADSVKGRFTISRDNSKNTLYLQMNSLRAEDTAVYYCARGLYGRSYFDYWGQGTLVTVSS VL: SYELTQPPSVSVAPGQTAKIACEGDNIGSKSVHWYQQRPGQAPVLVVYDDTDRPSGIPDRFSGSNSGNTATLTISRVEVGDEADYYCQVWDSGDGNPRVFGGGTKLTVL	–
–	–	4 nM	no binding (tested: 316 nM)	0.4	NOL225-2-C1 (eqIgG6 format) (antibody, V domains shown, source: Expi293F suspension cells, purified (HiTrap Fibro PrismA or Protein G HP)) VH: QVQLQQSGGGVVQPGRSLRLSCAASGFTFSSYGMHWVRQAPGKGLEWVAVIWYDGRNKYYADSVKGRFTISRDNSKNTLYLQMNSLRAEDTAVYYCARGLFGRSYFDYWGQGTLVTVSS VL: SYELTQPPSMSVAPGQTARIACEGDNIGSKSVHWYQQRPGQAPVLVVFDDTDRPSGIPDRFSGSNSGNTATLTISRVEVGDEADYYCQVWDSGDGHPRVFGGGTKLTVL	–
–	–	3 nM	no binding (tested: 316 nM)	0.5	NOL231-2-E2 (eqIgG6 format) (antibody, V domains shown, source: Expi293F suspension cells, purified (HiTrap Fibro PrismA or Protein G HP)) VH: QVQLQQSEGGVVQPGRSLRLSCAASGFTFSSYGMHWVRQAPGKGLEWLAVIWYDGSNKYYADSVKGRFTISRDNSKNTLYLQMNSLRAEDTAVYYCARGLFGRSYFDYWGQGTLVTVSS VL: SYELTQPPSVSVAPGQTAKITCEGDNIGSKSVHWYQQRPGQAPVLVVYDDTDRPSGIPDRFSGSNSGNTATLTISRVEVGDEADYYCQVWDSGDGHPRVFGGGTKLTVL	–
